The values below come from PMC3578932, “In Vitro Characterization of Echinomycin Biosynthesis: Formation and Hydroxylation of L-Tryptophanyl-S-Enzyme and Oxidation of (2S,3S) β-Hydroxytryptophan” (PLoS ONE, 2013).

Assay [1] concerns the target T1, Qui5 and holo-Qui18 coexpression product (complex) (Streptomyces griseovariabilis, UniProt G9JKM4).
T1 construct: full-length A-PCP didomain Qui18 (611 aa) and Qui5 (71 aa), both His6-tagged, coexpressed in E. coli BL21(DE3) with B. subtilis sfp; holo form 64,836 Da (4'-phosphopantetheine on PCP Ser); hetero-tetramer about 160 kD; with MbtH-like protein
Nature of the assay: Q-TOF-MS of amino acid loading onto holo-Qui18. To be noted: covalent; thioester to 4'-phosphopantetheine of the PCP domain; 5 mM L-tryptophan, 5 mM ATP, 10 mM MgCl2, 2 mM DTT, pH 8.0, 27°C, 2 hr. The format is biochemical.

The target in assay [2] is A-PCP didomain NRPS protein Qui18 (Streptomyces griseovariabilis subsp. bandungensis subsp. nov) (UniProt G9JKM4). Nature of the assay: SEC; copurified His6-tagged Qui5 and Qui18 from coexpression; peak at around 160 kD; fraction analysed by SDS-PAGE (data not shown). To be noted: scale: subunits of Qui5 with 2 subunits of Qui18. Background: SEC sorts molecules by how far they enter the pores of the column.

In assay [3] the target is tryptophan 2,3-dioxygenase Qui17 (Streptomyces griseovariabilis subsp. bandungensis subsp. nov). Nature of the assay: SEC; purified His-tagged Qui17; data not shown.

As for `N[C@@H](Cc1c[nH]c2ccccc12)C(=O)O` [L-tryptophan], the “Q-TOF-MS of amino acid loading onto holo-Qui18” value in assay [1] was “Qui18 recognized L-tryptophan as its substrate and its function depended on the association with Qui5”.

As usually defined, the stoichiometry N is the number of molecules, sites or subunits per partner or assembly. As for “MbtH-like protein Qui5 (natural protein)”, the stoichiometry N in assay [2] stood at 2.

Compound “tryptophan 2,3-dioxygenase Qui17 (enzyme)” gave a stoichiometry N in assay [3] of 4.
